Common to all, as to test: FP competition
For experiment [1], the target named is T1, (7× His)-PSD-95-PDZ2 wild type (UniProt P78352 160-246).
T1 construct: domain: PDZ2; recombinant from E. coli; also called PSD-95-PDZ2 WT; not shown: 7x His tag

The target in experiment [2] is T1, (7× His)-PSD-95-PDZ2 wild type. This is another data set of the same source.
Protocol: (§1) Fluorescence polarization (FP). FP assays were performed in a 384-well plate format. Fluorescence polarization was measured using a Safire 2 plate reader. The instrument Z-factor was optimized for each assay. The G-factor was calibrated to an initial milli polarization value of 20. […] Every measurement was performed in NaPI 50 mM, 50 mM NaCl and 1% BSA at pH 7.2, 25° C. […] The curves were done in triplicates. […] The mili polarization (mP) values were plotted as a function of peptide concentration and fitted to a sigmoidal dose-response curve using Prism software 8.0 (GraphPad). The Kᵢ values were calculated according to Nikolovska-Coleska Z. et al.⁴⁰⁻⁴¹
For experiment [3] the target is unchanged. This is another data set of the same source.
Protocol: (§2) Fluorescence polarization (FP). FP assays were performed in a 384-well plate format. Fluorescence polarization was measured using a Safire 2 plate reader. The instrument Z-factor was optimized for each assay. The G-factor was calibrated to an initial milli polarization value of 20. […] Every measurement was performed in NaPI 50 mM, 50 mM NaCl and 1% BSA at pH 7.2, 25° C. […] The curves were done in triplicates. Then, the polarization was fitted into a one-site binding model using Prism software 8.0 (GraphPad), from which the Kd can be measured. […] The mili polarization (mP) values were plotted as a function of peptide concentration and fitted to a sigmoidal dose-response curve using Prism software 8.0 (GraphPad). The Kᵢ values were calculated according to Nikolovska-Coleska Z. et al.⁴⁰⁻⁴¹
Experiment [4] has the same target. This is another data set of the same source.
Protocol: as §2
Experiment [5] has the same target. This is another data set of the same source.
Protocol: Fluorescence polarization (FP). FP assays were performed in a 384-well plate format. Fluorescence polarization was measured using a Safire 2 plate reader. The instrument Z-factor was optimized for each assay. The G-factor was calibrated to an initial milli polarization value of 20. […] Every measurement was performed in NaPI 50 mM, 50 mM NaCl and 1% BSA at pH 7.2, 25° C. […] The curves were done in triplicates. […] The mili polarization (mP) values were plotted as a function of peptide concentration and fitted to a sigmoidal dose-response curve using Prism software 8.0 (GraphPad).
Data was collected in triplicates and is presented as mean of Kᵢ values±SEM
Experiment [6] has the same target. This is another data set of the same source.
Protocol: as §1

Like-named read-outs stand apart in the source and are kept apart here. Bridges are numbered along the chain shown (N, C = ends). [ ]: non-standard residue; d: D form.

T1 sequence (P78352 160-246): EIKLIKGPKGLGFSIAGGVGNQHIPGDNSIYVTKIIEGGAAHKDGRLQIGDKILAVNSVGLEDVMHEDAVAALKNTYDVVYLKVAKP

For orientation: Ki means the dissociation constant of the complex between target and ligand, obtained from inhibition or displacement. THLETTFTGDGTPKTIRVTXPGQ (cyclic; D-Pro; N-methyl Gln 124) [cyclic nNOS β-hairpin peptide N-Me-Q124] had an inhibition constant (Ki) in experiment [1] of 2200 nM.

As to THLETTFTGDGTPKTIRXTQPGQ (cyclic; D-Pro; N-methyl Val 122) [cyclic nNOS β-hairpin peptide N-Me-V122], the Ki in experiment [1] came out at 6170 nM.

Molecule THLETTFTXDGTPKTIRVTQPGQ (cyclic; D-Pro; N-methyl Gly 113) [cyclic nNOS β-hairpin peptide N-Me-G113] showed an inhibitory constant (Ki) in experiment [1] of 6190 nM.

B1: cyclic nNOS β-hairpin peptide ΔT112 (peptide)
peptide: cyclo(THLETTFGDGTPKTIRVTQ[dP]GQ)
SMILES: CC[C@H](C)[C@@H]1NC(=O)[C@H]([C@@H](C)O)NC(=O)[C@H](CCCCN)NC(=O)[C@@H]2CCCN2C(=O)[C@H]([C@@H](C)O)NC(=O)CNC(=O)[C@H](CC(=O)O)NC(=O)CNC(=O)[C@H](Cc2ccccc2)NC(=O)[C@H]([C@@H](C)O)NC(=O)[C@H]([C@@H](C)O)NC(=O)[C@H](CCC(=O)O)NC(=O)[C@H](CC(C)C)NC(=O)[C@H](Cc2c[nH]cn2)NC(=O)[C@H]([C@@H](C)O)NC(=O)[C@H](CCC(N)=O)NC(=O)CNC(=O)[C@H]2CCCN2C(=O)[C@H](CCC(N)=O)NC(=O)[C@H]([C@@H](C)O)NC(=O)[C@H](C(C)C)NC(=O)[C@H](CCCNC(=N)N)NC1=O
With B1, the inhibition constant Ki in experiment [2] was determined as 690 nM.

B2: cyclic nNOS β-hairpin peptide ΔD114 (peptide)
peptide: cyclo(THLETTFTGGTPKTIRVTQ[dP]GQ)
SMILES: CC[C@H](C)[C@@H]1NC(=O)[C@H]([C@@H](C)O)NC(=O)[C@H](CCCCN)NC(=O)[C@@H]2CCCN2C(=O)[C@H]([C@@H](C)O)NC(=O)CNC(=O)CNC(=O)[C@H]([C@@H](C)O)NC(=O)[C@H](Cc2ccccc2)NC(=O)[C@H]([C@@H](C)O)NC(=O)[C@H]([C@@H](C)O)NC(=O)[C@H](CCC(=O)O)NC(=O)[C@H](CC(C)C)NC(=O)[C@H](Cc2c[nH]cn2)NC(=O)[C@H]([C@@H](C)O)NC(=O)[C@H](CCC(N)=O)NC(=O)CNC(=O)[C@H]2CCCN2C(=O)[C@H](CCC(N)=O)NC(=O)[C@H]([C@@H](C)O)NC(=O)[C@H](C(C)C)NC(=O)[C@H](CCCNC(=N)N)NC1=O
B2: in experiment [2], the affinity corresponds to a Ki of 700 nM.

B3: cyclic nNOS β-hairpin peptide ΔT116 (peptide)
peptide: cyclo(THLETTFTGDGPKTIRVTQ[dP]GQ)
SMILES: CC[C@H](C)[C@@H]1NC(=O)[C@H]([C@@H](C)O)NC(=O)[C@H](CCCCN)NC(=O)[C@@H]2CCCN2C(=O)CNC(=O)[C@H](CC(=O)O)NC(=O)CNC(=O)[C@H]([C@@H](C)O)NC(=O)[C@H](Cc2ccccc2)NC(=O)[C@H]([C@@H](C)O)NC(=O)[C@H]([C@@H](C)O)NC(=O)[C@H](CCC(=O)O)NC(=O)[C@H](CC(C)C)NC(=O)[C@H](Cc2c[nH]cn2)NC(=O)[C@H]([C@@H](C)O)NC(=O)[C@H](CCC(N)=O)NC(=O)CNC(=O)[C@H]2CCCN2C(=O)[C@H](CCC(N)=O)NC(=O)[C@H]([C@@H](C)O)NC(=O)[C@H](C(C)C)NC(=O)[C@H](CCCNC(=N)N)NC1=O
The molecule B3 came in with an inhibition constant (Ki) in experiment [2] of 1430 nM.

Take THLETTFTGDGTPKTXRVTQPGQ (cyclic; D-Pro; N-methyl Ile 120) [cyclic nNOS β-hairpin peptide N-Me-I120]: in experiment [1], the Ki came out at 1120 nM.

The molecule THLETXFTGDGTPKTIRVTQPGQ (cyclic; D-Pro; N-methyl Thr 110) [cyclic nNOS β-hairpin peptide N-Me-T110] yielded a Ki in experiment [1] of 1470 nM.

In experiment [1], THLETTFTGDGXPKTIRVTQPGQ (cyclic; D-Pro; N-methyl Thr 116) [cyclic nNOS β-hairpin peptide N-Me-T116] gave a Ki of 930 nM.

THLETTFTGDGTPXTIRVTQPGQ (cyclic; D-Pro; N-methyl Lys 118) [cyclic nNOS β-hairpin peptide N-Me-K118]: the Ki in experiment [1] was 480 nM. Further, in experiment [3], the fold improved affinity was determined as 2 fold.

The molecule THLETTFTGDGTPKXIRVTQPGQ (cyclic; D-Pro; N-methyl Thr 119) [cyclic nNOS β-hairpin peptide N-Me-T119] came in with an inhibition constant Ki in experiment [1] of 4880 nM.

XHLETTFTGDGTPKTIRVTQPGQ (cyclic; D-Pro; N-methyl Thr 105) [cyclic nNOS β-hairpin peptide N-Me-T105] displayed a Ki in experiment [1] of 4800 nM. For the same molecule, the “fold decrease in affinity” value in experiment [3] stood at 5 fold.

Molecule XHLETTFTGDGTPKTIRVTQPGC (cyclic by thioether (N-terminal acetyl to Cys); D-Pro, also called thioether bridged analogue) [Cyclo-(Ac105…124pGC), Thioether] displayed an inhibitory constant (Ki) in experiment [4] of 4800 nM. In other words, the single-digit micromolar range.

THLETTFTGDGTPKTIRVXQPGQ (cyclic; D-Pro; N-methyl Thr 123) [cyclic nNOS β-hairpin peptide N-Me-T123]: in experiment [1], the inhibition constant (Ki) was found to be 580 nM. Also, the fold improved affinity in experiment [3] is 2 fold.

Molecule THLETTFTGXGTPKTIRVTQPGQ (cyclic; D-Pro; N-methyl Asp 114) [cyclic nNOS β-hairpin peptide N-Me-D114] displayed a Ki in experiment [1] of 620 nM. In other words, the sub-micromolar range.

As to THLETTFTGDGTPKXIRVTQPGQ (cyclic; D-Pro; allo-Thr at 119) [cyclic nNOS β-hairpin peptide AlloT119], in experiment [2], the affinity corresponds to a Ki of 8990 nM.

The molecule XHLETTFTGDGTPKTIRVTQPGQ (cyclic; D-Pro; allo-Thr at 105) [cyclic nNOS β-hairpin peptide AlloT105] came in with an inhibitory constant (Ki) in experiment [2] of 2650 nM. Compared with the last molecule, the Ki is about 3.4-fold lower.

Consider THLETTFTGDGTPKTIRVXQPGQ (cyclic; D-Pro; phospho-Thr 123) [cyclic nNOS β-hairpin peptide pT123], for which affinity in experiment [5] was put at a Ki of 1150 nM.

In turn, THLETTFTGDGTPKTIXVTQPGQ (cyclic; D-Pro; N-methyl Arg 121) [cyclic nNOS β-hairpin peptide N-Me-R121] registered an inhibitory constant (Ki) in experiment [1] of 990 nM.

In experiment [1], THLETTFTGDXTPKTIRVTQPGQ (cyclic; D-Pro; N-methyl Gly 115) [cyclic nNOS β-hairpin peptide N-Me-G115] gave an inhibition constant Ki of 820 nM.

cyclo(CTHLETTFTGDGTPKTIRVTQ[dP]G) (also called NCL peptide) [Cyclo-(C105THLETTFTGDGTPKTIRVTQ124pG), NCL] displayed a Ki in experiment [4] of 1010 nM.

As to THLETTFXGDGTPKTIRVTQPGQ (cyclic; D-Pro; phospho-Thr 112) [cyclic nNOS β-hairpin peptide pT112], affinity in experiment [5] was put at a Ki of 2680 nM.

THLETTFTGDGTPKTIRVTQ[dP]GD-NH2 (lactam N-23) [Cyclo-(105THLETTFTGDGTPKTIRVTQ124pG(Dγ)), Asp side-chain lactam] showed a Ki in experiment [4] of 4290 nM.

B4: cyclic nNOS β-hairpin peptide T119A (peptide)
peptide: cyclo(THLETTFTGDGTPKAIRVTQ[dP]GQ)
SMILES: CC[C@H](C)[C@@H]1NC(=O)[C@H](C)NC(=O)[C@H](CCCCN)NC(=O)[C@@H]2CCCN2C(=O)[C@H]([C@@H](C)O)NC(=O)CNC(=O)[C@H](CC(=O)O)NC(=O)CNC(=O)[C@H]([C@@H](C)O)NC(=O)[C@H](Cc2ccccc2)NC(=O)[C@H]([C@@H](C)O)NC(=O)[C@H]([C@@H](C)O)NC(=O)[C@H](CCC(=O)O)NC(=O)[C@H](CC(C)C)NC(=O)[C@H](Cc2c[nH]cn2)NC(=O)[C@H]([C@@H](C)O)NC(=O)[C@H](CCC(N)=O)NC(=O)CNC(=O)[C@H]2CCCN2C(=O)[C@H](CCC(N)=O)NC(=O)[C@H]([C@@H](C)O)NC(=O)[C@H](C(C)C)NC(=O)[C@H](CCCNC(=N)N)NC1=O
Regarding B4, in experiment [6], the Ki was found to be 17000 nM and the “Relative Ki (Ki mut/Ki WT)” value worked out at 11.3.

B5: cyclic nNOS β-hairpin peptide T123A (peptide)
peptide: cyclo(THLETTFTGDGTPKTIRVAQ[dP]GQ)
SMILES: CC[C@H](C)[C@@H]1NC(=O)[C@H]([C@@H](C)O)NC(=O)[C@H](CCCCN)NC(=O)[C@@H]2CCCN2C(=O)[C@H]([C@@H](C)O)NC(=O)CNC(=O)[C@H](CC(=O)O)NC(=O)CNC(=O)[C@H]([C@@H](C)O)NC(=O)[C@H](Cc2ccccc2)NC(=O)[C@H]([C@@H](C)O)NC(=O)[C@H]([C@@H](C)O)NC(=O)[C@H](CCC(=O)O)NC(=O)[C@H](CC(C)C)NC(=O)[C@H](Cc2c[nH]cn2)NC(=O)[C@H]([C@@H](C)O)NC(=O)[C@H](CCC(N)=O)NC(=O)CNC(=O)[C@H]2CCCN2C(=O)[C@H](CCC(N)=O)NC(=O)[C@H](C)NC(=O)[C@H](C(C)C)NC(=O)[C@H](CCCNC(=N)N)NC1=O
On to B5, for which, in experiment [6], the Ki worked out at 1550 nM and the “Relative Ki (Ki mut/Ki WT)” value was determined as 1.03.

B6: cyclic nNOS β-hairpin peptide V122A (peptide)
peptide: cyclo(THLETTFTGDGTPKTIRATQ[dP]GQ)
SMILES: CC[C@H](C)[C@@H]1NC(=O)[C@H]([C@@H](C)O)NC(=O)[C@H](CCCCN)NC(=O)[C@@H]2CCCN2C(=O)[C@H]([C@@H](C)O)NC(=O)CNC(=O)[C@H](CC(=O)O)NC(=O)CNC(=O)[C@H]([C@@H](C)O)NC(=O)[C@H](Cc2ccccc2)NC(=O)[C@H]([C@@H](C)O)NC(=O)[C@H]([C@@H](C)O)NC(=O)[C@H](CCC(=O)O)NC(=O)[C@H](CC(C)C)NC(=O)[C@H](Cc2c[nH]cn2)NC(=O)[C@H]([C@@H](C)O)NC(=O)[C@H](CCC(N)=O)NC(=O)CNC(=O)[C@H]2CCCN2C(=O)[C@H](CCC(N)=O)NC(=O)[C@H]([C@@H](C)O)NC(=O)[C@H](C)NC(=O)[C@H](CCCNC(=N)N)NC1=O
On to B6, for which, in experiment [6], the affinity, expressed as Ki, was 2230 nM and the “Relative Ki (Ki mut/Ki WT)” value stood at 1.49.

THLETTFTGDGTPKTIRVTQ[dP]GE-NH2 (lactam N-23) [Cyclo-(105THLETTFTGDGTPKTIRVTQ124pG(Eγ)), Glu side-chain lactam]: the affinity in experiment [4], expressed as Ki, was 3600 nM.

In the case of THLETTFTGDGXPKTIRVTQPGQ (cyclic; D-Pro; phospho-Thr 116) [cyclic nNOS β-hairpin peptide pT116], the affinity in experiment [5] corresponds to a Ki of 210 nM.

For THLETTFXGDGTPKTIRVTQPGQ (cyclic; D-Pro; N-methyl Thr 112) [cyclic nNOS β-hairpin peptide N-Me-T112], the Ki in experiment [1] came to 1080 nM.

Molecule XHLETTFTGDGTPKTIRVTQPGQ (cyclic; D-Pro; phospho-Thr 105) [cyclic nNOS β-hairpin peptide pT105] yielded a Ki in experiment [5] of 2930 nM.

THLETXFTGDGTPKTIRVTQPGQ (cyclic; D-Pro; allo-Thr at 110) [cyclic nNOS β-hairpin peptide AlloT110]: the inhibition constant Ki in experiment [2] was 2290 nM.

For the origin of these results see patent publication US20230220021A1 (UNIVERSITY OF COPENHAGEN, published 2023).
